Laboratory results taken from the supplement of paper PMC9170038.

Test system: MS2 coat protein
Test: apparent KD of MS2 coat protein; designed switch direction (-1 OFF switch, 1 ON switch): -1; higher = weaker reporter binding
In short: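 SNAP-549-labelled MS2 coat protein was titrated, doubling from 0.7 or 1.5 nM to 3 µM, over designed RNA switches transcribed on Illumina chips by stalled E. coli RNA polymerase. Runs were done without input, with 200 uM small-molecule ligand, or with an oligonucleotide input. Apparent KD is the per-design median over clusters of curve-fitted normalised fluorescence.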

[1] = Eterna round: R95, input ligand: FMN 200 uM
[2] = Eterna round: R95, input ligand: microRNA oligo, concentration not stated
[3] = Eterna round: R95, input ligand: none

Sequence | apparent KD of MS2 coat protein [1] [nM] | apparent KD of MS2 coat protein [2] [nM] | apparent KD of MS2 coat protein [3] [nM] | apparent KD of MS2 coat protein (input ligand: FMN 200 uM) [nM] | apparent KD of MS2 coat protein (input ligand: none) [nM]
CUGAUGUCAGGAUAUCAGAAAAGGCACAAGAACGCGCCAAAUGAGAAGGGACAUGAGGAUCACCCAUGUAAAAC [Reena] (puzzle: Exclusion 4) | 87.1 | 28.2 | 27.9 | – | –
GGCUAGUCAGGAUAUACGAACAUGUCAAAAGACGUGAAGGGACAUGAGGAUCACCCAUGUAGAAGGGACUAGCG [salish99_ex2_r3_002] (puzzle: Exclusion 2) | – | 25 | – | – | –
UUAAUGUGAGGAUAUCAGGUGUGCUAGCGUACUGGUACAUCUGAGAAGGCACAUGAGGAUCACCCAUGUUUCUU [JL-ex4-3.23 Brourd mod] (puzzle: Exclusion 4) | – | 26.7 | – | – | –
AGCCCUGCAGGAUAUGCCCGGGAUAACAUGAGGAUCACCCAUGUGACCGAUUGUUAUCCUGCAGAAGGGCUAGGGA [JL-EX5-4.11 ViennaUCT mod] (Eterna round: R97, puzzle: Exclusion 5) | – | – | – | 126 | 49
GAGAAGGUAGGAUAUACGAAUAAAUAGGGUAGGAAGAAGACACAUGAGGAUCACCCAUGUAGAAGGACCAAGAG [Mat - Exclusion 2 - Mod of my Tesla design - D36] (puzzle: Exclusion 2) | 29.3 | 14.6 | 17.8 | – | –
UUGCUCCCUUAGUACUCUACAAGUUUUUUGUUCGUUUUAACAUGAGGAUCACCCAUGUCUAGUGGAUCUGAUCGGGU [JL ViennaUCT Isreen mod 5] (puzzle: Sensor v3, turn-off variant 2) | 172 | 336 | 178 | – | –
CAGUACUGAGGAUAUACAUGAGGAUCACCCAUGUGUUCCUGCUAGGAAACUAGCAAAAGUAGAAGGCAGUACUG [salish99_ex3_r3_098x] (puzzle: Exclusion 3) | – | 28.5 | – | – | –
GUGGUACAUGAGGAUCACCCAUGUUAGGAUAUCGCGUGAGGUUUUGCUUCCGCGCGCGCGAGAAGGGACGUCUU (puzzle: Exclusion 1) | – | 23.2 | – | – | –
CUAGAUCUUCGGAUCUAGUACAUGAGGAUCACCCAUGUUACGAGUUGAUCCUCAUACAAGCUUUUUGCUCGUCUUAU [Sensor v3 - Turn-off variant 1 - 25] (puzzle: Sensor v3, turn-off variant 1) | 16.5 | 9.03 | 13.9 | – | –
CUGAUGUUAGGAUAUCAGGCACCCGCCACUGGCAGGGCGCAUGAGAAGGGACAUGAGGAUCACCCAUGUAGUAA [Gelaoren] (puzzle: Exclusion 4) | – | 21.3 | – | – | –
AGUAACCGUCACGAAAGUGAUGGUUACAUAAGCAUAUGUACAUGAGGAUCACCCAUGUCCUCAACUGCUCGUUUUAU [Sensor 3 - 56] (puzzle: Sensor v3, turn-off variant 2) | 292 | 612 | 349 | – | –
CAUGCACAUGAGGAUCACCCAUGUGAGGAUAUUUAGCGUCAGUAAUCAAUAGACAGCAGAAGAAGGCACCUGGU [Eternabot (L2) Solution 73] (Eterna round: R97, puzzle: Exclusion 1) | – | – | – | 35 | 29.4
CCUUAGUAAGGAUAUCAGCUUAUAGAGUUGGUAAUGAGAGCUGAGAAGGUACAUGAGGAUCACCCAUGUUAGUU [JL Zatite mod 4] (puzzle: Exclusion 4) | – | 20.3 | – | – | –
UCGGCGCGAGGAUAUACGUUUGCUUUUUUUUGUCUUUGUGUACAUGAGGAUCACCCAUGUAGAAGGCGCGCCGC [Apr-15 SS2-22] (puzzle: Exclusion 2) | – | 18.5 | – | – | –
ACGUGAUAUCUGUCGGUGGACAUGAGGAUCACCCAUGUAAGCUUUCUGCUCGUCUUAUAACCCGGUGACAGACCUUC [Diteerquus] (puzzle: Sensor v3, turn-off variant 1) | 45.3 | 310 | 56.9 | – | –
CCUAGACAUGAGGAUCACCCAUGUGAGGAUAUGAUGCGAAUAAAGAAAGAAGAAAGCAUCAGAAGGCACAUAUG [Fiskers Ex 1 - 2] (puzzle: Exclusion 1) | 130 | 41.2 | 49.4 | – | –
UGUUGUUCAGGAUAUGAAGUAUAUUACAUGAGGAUCACCCAUGUAGAUCCUGAAUAUACAUCAGAAGGGAAUAUUU [JR_Ex5_Sub057] (Eterna round: R97, puzzle: Exclusion 5) | – | – | – | 51 | 21.1
CCUUGUGUUGAGGAUAUGCGCCGGCUCGCUGGCGCAGAAGGCGGCACAUGAGGAUCACCCAUGUCAGUUCGCGU [salish99_ex6_r004_014] (Eterna round: R97, puzzle: Exclusion 6) | – | – | – | 431 | 29.8
